Assay results published in publication PMC9762590 (PLOS Pathogens, 2022).

T1: NANP5.5-1210 Fab-LS-Th2R nanoparticles (Plasmodium falciparum (3D7/NF54-type …, UniProt Q7K740))
T1 construct: 5.5 NANP repeat motifs of the PfCSP central repeat (NANP5.5); 8-aa linker; Aquifex aeolicus lumazine synthase (LS) monomer; Aquifex aeolicus lumazine synthase (LS) alone, from the co-transfected LS-pHLsec plasmid; 60-mer LS nanocage; source: HEK293F, transient co-transfection, secreted, purified (StrepTrap, SEC on Superose 6); copies: + +
T1 chain: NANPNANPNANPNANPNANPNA

T2: NANP6 peptide (Plasmodium falciparum (synthetic repeat …, N-terminal biotin-aminohexanoic acid tag; unmodified C-terminus)
T2 construct: PfCSP central repeat motifs; source: synthetic peptide (CPC Scientific)
T2 chain: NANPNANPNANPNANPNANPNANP

B1: 1210 Fab (Fab, V domains shown)
VH: QVQLVESGGGVVQPGRSLRLSCAASGFTFSNYGMHWVRQAPGKGLEWVAVIWYDGSKKYYADSVKGRFTISRDNSKNTLYLQMNSLRAEDTAVYYCARVRDSSDYYGDAFDIWGQGTMVTVSS
VL: DIQMTQSPSTLSASVGDRVTITCRASQSISSWLAWYQQKPGKAPKLLIYKASNLESGVPLRFSGSGSGTEFTLTISSLQPDDFATYYCQQYNNYWTFGQGTKVEIK
B2: monoclonal antibody (mAb) 850 (antibody, V domains shown)
VH: QVQLVESGGGVVQPGRSLRLSCAASGFTFSNFGMHWIRQSPGKGLEWVAIIWYDGSNTYYADSVKGRFTISRDNSKNTLYLQMNSLRAEDTAVYYCAKVWFGESEDNYSVDVWGQGTTVTVSS
VL: DIQMTQSPSTLSTSVGDRVTITCRASQSISNWLAWYQQKPGKAPKLLIYKASTLESGVPSRFSGSGSGTEFTLTISSLQPDDFATYYCQQYSSYWTFGQGTKLEIK
notes: VH of mAb 850 (IGHV3-33); human IgG1 heavy chain constant region (antibodies expressed as fully human IgG1); VK of mAb 850 (IGKV1-5); human Ig kappa constant region (antibodies expressed as fully human IgG1); IgG1, kappa; source: recombinantly expressed as fully human IgG1; re-expressed in CHO-3E7 cells, purified (MabSelect SuRe LX)
B3: Fab 2541 (Fab, V domains shown)
VH: QVQLVESGGGVVQPGRSLRLSCAASGFTFSSYGMHWVRQTTGKGLEWVAIIWHDGSKKYYADSVKGRLTISRDNSKNTLYLQMNSLRVEDTALYYCARVGDYSDFKYGAFDIWGQGTMVTVSS
VL: DIQMTQSPSTLSASVGDRVTITCRASQSISSWLAWYQQKPGKAPNLLIYKASTLESGVPSRFSGSGSGTEFTLTISSLQPDDFATYYCQQYNSYWTFGQGTRVEIK

Assays:
[1] = target: T1, NANP5.5-1210 Fab-LS-Th2R nanoparticles; experiment: BLI; Fabs immobilised on anti-human Fab-CH1 biosensors (10 μg/mL), dipped into nanoparticles; kinetics buffer PBS pH 7.4, 0.01% BSA, 0.002% Tween-20; Octet RED96; details: both partners purified
NANP6 peptide = target: T2, NANP6 peptide; experiment: SPR; Carterra LSA, CMD200M chip, 25°C; mAbs directly amine-coupled, PfCSP peptides as analytes (two-fold series, top 8 μg/ml) in 1X HBSTE; 1:1 Langmuir fit; KD includes avidity effect for antigens with multiple repeats; details: both partners purified

Binder	binding result [1]	Kd (NANP6 peptide)
B1	binds	–
B2	–	0.025 nM
B3	binds	–
